# Target: the molecule itself
# Assay: SEC-MALS; GE Superdex 200 column, Wyatt DAWN HELEOS-II and T-Rex refractometer; 100 µl of 0.5 mg/ml of each sample loaded
Protein,stoichiometry N,binding result
"CHIP-T246M, His-tagged recombinant (natural protein, human, UniProt Q9UNE7 1-303, looked up, CHIP (STUB1), human, full-length protein with the SCAR16 patient mutation T246M; T246M is a mutation found in patients (p.T246M); also called T246M CHIP; source: E. coli BL21(DE3), purified (HisTrap HP); copies: 10-12) MKGKEEKEGGARLGAGGGSPEKSPSAQELKEQGNRLFVGRKYPEAAACYGRAITRNPLVAVYYTNRALCYLKMQQHEQALADCRRALELDGQSVKAHFFLGQCQLEMESYDEAIANLQRAYSLAKEQRLNFGDDIPSALRIAKKKRWNSIEERRIHQESELHSYLSRLIAAERERELEECQRNHEGDEDDSHVRAQQACIEAKHDKYMADMDELFSQVDEKRKKRDIPDYLCGKISFELMREPCIMPSGITYDRKDIEEHLQRVGHFDPVTRSPLTQEQLIPNLAMKEVIDAFISENGWVEDY",10 to 12,–
"CHIP-H260Q, His-tagged recombinant (natural protein, human, UniProt Q9UNE7 1-303, looked up, CHIP (STUB1), human, full-length protein with the synthetic mutation H260Q; source: E. coli BL21(DE3), purified (HisTrap HP)) MKGKEEKEGGARLGAGGGSPEKSPSAQELKEQGNRLFVGRKYPEAAACYGRAITRNPLVAVYYTNRALCYLKMQQHEQALADCRRALELDGQSVKAHFFLGQCQLEMESYDEAIANLQRAYSLAKEQRLNFGDDIPSALRIAKKKRWNSIEERRIHQESELHSYLSRLIAAERERELEECQRNHEGDEDDSHVRAQQACIEAKHDKYMADMDELFSQVDEKRKKRDIPDYLCGKISFELMREPCITPSGITYDRKDIEEQLQRVGHFDPVTRSPLTQEQLIPNLAMKEVIDAFISENGWVEDY",–,binds
